Data on 1 substance can be found in patent publication US8329168.

This data set has as its system Met-SC1-325-His-6 (fragment comprising residues 1-325 of staphylocoagulase with an additional Met at the NH2 terminus and a His tag fused to the COOH terminus).

Regarding “IIQ320 (recombinant human prothrombin containing Gln in place of Arg-320)”, the “conformational activation (initial rates of S2238 hydrolysis)” value was “Conformational activation of IIQ320 and its covalent inactivation with FPR-CH2Cl was accomplished by the addition of 43 µM Met-SC1-325-His-6”.
